Test results: patent US20250206792

B1: PKNB1_Cgl2751 (Corynebacterium glutamicum) (SEQ ID NO: 9) (protein)
chain: MYEVLGVIAHGGMGWIYLANDRNVSGRIVVLKGMMAQSSVQDQGTAEAEREFLADITHPGIVKAYNFIDDPRVPGGFIVMEYVNGPSLKDRCKAQPDGVLRVDLAIGYILELLPAMDYLHQRGVVYNDLKPENVIATEDQVKLIDLGAVTGIGAFGYIYGTKGFQAPEVATHGPSISSDIFTIGRTLAALTMPLPVEDGVLAPGIPSPKNSPLLRRHLSFYRLLQRATADDPQHRFRNVSELRTQLYGVLREILAVRDGKQYPPQHSLFSPQRSTFGTKHLVF
B2: YabT (GenBank: SPU13583.1) (SEQ ID NO: 5) (protein)
chain: MLNWTPKLQSLSTPFAKLSTAAITPTGPAIREATLQFEKYAQEGACWQMMNDALTSLACSLKPGTTIKGKWNGNTYTLRKQLGKGANGIVYLAETSDGHVALKVSDDSLSITSEVNVLKSFSKAQSVTMGPSFFDTDDAYIPSANTKVSFYAMEYIKGPLLLKYVSDKGAEWIPVLMIQLLSSLSVLHQQGWIFGDLKPDNLIVTGPPARIRCIDVGGTTKEGRAIKEYTEFYDRGYWGYGTRKAEPSYDLFAVAMIMINSVHKKEFKKTNQPKEQLRSLIEGNPLLQKYKKALFSALNGDYQSADEMKKDMLDAGQKAAQRKQPIKASPQPATRQRQQKPRQGKITKTRYTPKQKPAKSGGLFETTLIVISVLALYFAYIIFFLI
B3: PrkC (Bacillus subtilis) (SEQ ID NO: 8) (protein)
chain: MSGPVPSRARVYTDVNTHRPREYWDYESHVVEWGNQDDYQLVRKLGRGKYSEVFEAINITNNEKVVVKILKPVKKKKIKREIKILENLRGGPNIITLADIVKDPVSRTPALVFEHVNNTDFKQLYQTLTDYDIRFYMYEILKALDYCHSMGIMHRDVKPHNVMIDHEHRKLRLIDWGLAEFYHPGQEYNVRVASRYFKGPELLVDYQMYDYSLDMWSLGCMLASMIFRKEPFFHGHDNYDQLVRIAKVLGTEDLYDYIDKYNIELDPRFNDILGRHSRKRWERFVHSENQHLVSPEALDFLDKLLRYDHQSRLTAREAMEHPYFYTVVKDQARMGSSSMPGGSTPVSSANMMSGISSVPTPSPLGPLAGSPVIAAANPLGMPVPAAAGAQ
B4: PrkD (Bacillus subtilis 168 | BSU_02030) (SEQ ID NO: 7) (protein)
chain: MALKLLKKLLFDRPLKNGVILNHQYKIEECLGMGGYGLVYLCTDILAQTPYVLKQLRPTKAKKEKEKVRFQQEIKLLKNIHHPQIPGFIDEFIIDGQAYYVMQFIEGENIEELLFFRKQPFTELMALQLISQLLEIIEYLHDRLIFHSDIRTPNIIINDGRLCLIDFGLAKQLTPEEMEEIKVRKQDDFFDLGETLLFLLYSQYKGKKKKNGTWLEELTLTKEVTLLLKRLLGIEEEYQHTASIREDLNRAIQSVT

What was measured:
[1] = biological target: T1, Bovine Alpha-s1-casein (SEQ ID NO: 1)
T1 chain: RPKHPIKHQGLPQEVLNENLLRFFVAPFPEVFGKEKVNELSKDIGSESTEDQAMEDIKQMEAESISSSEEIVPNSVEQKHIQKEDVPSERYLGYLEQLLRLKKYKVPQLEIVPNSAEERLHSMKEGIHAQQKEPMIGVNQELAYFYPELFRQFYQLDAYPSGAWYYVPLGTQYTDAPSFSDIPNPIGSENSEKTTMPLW

[2] = biological target: T2, Bovine Beta-casein (SEQ ID NO: 3)
T2 chain: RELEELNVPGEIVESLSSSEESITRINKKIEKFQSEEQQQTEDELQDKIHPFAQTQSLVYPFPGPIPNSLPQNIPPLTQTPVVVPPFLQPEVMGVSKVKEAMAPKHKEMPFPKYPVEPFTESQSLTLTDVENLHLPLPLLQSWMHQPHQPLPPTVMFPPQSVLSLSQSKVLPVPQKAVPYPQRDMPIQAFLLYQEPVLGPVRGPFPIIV

Protein | number of phosphorylated sites similar to native bovine phosphorylation sites, MS [1] [sites] | number of sites phosphorylated, in vitro kinase reaction, MS [1] | phosphorylation at *S130 (native site), MS grade, in vitro kinase reaction [1] | phosphorylation at S103, MS grade, in vitro kinase reaction [1] | phosphorylation at S137, MS grade, in vitro kinase reaction [1] | phosphorylation at Y109, MS grade, in vitro kinase reaction [1] | phosphorylation at Y159, MS grade, in vitro kinase reaction [1] | number of phosphorylated sites similar to native bovine phosphorylation sites, MS [2] [sites] | number of sites phosphorylated, in vitro kinase reaction, MS [2] | phosphorylation at *S30 (native site), MS grade, in vitro kinase reaction [2] | phosphorylation at T39, MS grade, in vitro kinase reaction [2] | number of phosphorylated sites similar to native phosphorylation sites, MS [1] | phosphorylation at *S56 (native site), MS grade, in vitro kinase reaction [1] | phosphorylation at *S61 (native site), MS grade, in vitro kinase reaction [1] | phosphorylation at *S63 (native site), MS grade, in vitro kinase reaction [1] | phosphorylation at *S79 (native site), MS grade, in vitro kinase reaction [1] | phosphorylation at *S81 (native site), MS grade, in vitro kinase reaction [1] | phosphorylation at *S82 (native site), MS grade, in vitro kinase reaction [1] | phosphorylation at *S83 (native site), MS grade, in vitro kinase reaction [1] | phosphorylation at *S90 (native site), MS grade, in vitro kinase reaction [1] | other results
B1 | 1 | PKNB and PrkC phosphorylated 6 sites in αs1-casein each | + | + | + | + | + | 1 | PKNB and PrkC phosphorylated 2 sites in β-casein each | + | +++ | – | – | – | – | – | – | – | – | – | phosphorylation at Y188, MS grade, in vitro kinase reaction [1]: +
B2 | – | PrkD and YabT phosphorylated 13 and 10 sites, respectively | – | + | + | – | – | – | PrkD and YabT phosphorylated 5 sites each | ++ | ++ | with 9 and 8 sites showing similarity to native phosphorylation sites | +++ | ++ | ++ | +++ | +++ | +++ | +++ | ++ | number of phosphorylated sites similar to native phosphorylation sites, MS [2]: with 3 sites showing similarity to native phosphorylation sites; phosphorylation at *S32 (native site), MS grade, in vitro kinase reaction [2]: ++; phosphorylation at *S50 (native site), MS grade, in vitro kinase reaction [2]: ++; phosphorylation at T56, MS grade, in vitro kinase reaction [2]: +
B3 | 2 | PKNB and PrkC phosphorylated 6 sites in αs1-casein each | + | + | + | + | + | 1 | PKNB and PrkC phosphorylated 2 sites in β-casein each | + | ++ | – | + | – | – | – | – | – | – | – | –
B4 | – | PrkD and YabT phosphorylated 13 and 10 sites, respectively | +++ | + | + | – | + | – | PrkD and YabT phosphorylated 5 sites each | + | + | with 9 and 8 sites showing similarity to native phosphorylation sites | ++ | + | + | + | + | + | + | + | phosphorylation at Y161, MS grade, in vitro kinase reaction [1]: +; number of phosphorylated sites similar to native phosphorylation sites, MS [2]: with 3 sites showing similarity to native phosphorylation sites; phosphorylation at *S32 (native site), MS grade, in vitro kinase reaction [2]: +; phosphorylation at *S50 (native site), MS grade, in vitro kinase reaction [2]: +; phosphorylation at S337, MS grade, in vitro kinase reaction [2]: +
